± gives the standard deviation of the averaged measurements.
Test system: ATP
Assay: switch fluorescence ratio, 500 uM ATP over buffer (Cy3 cluster intensity, sum of 5 cycles each) (fold (ratio)); higher = stronger signal-on switching upon ATP binding; sequences stand for … in TCGTCGGCAGCGTCAGATGTGTATAAGAGACAGTTTTTTTTTTTTTTTTTTTTTTTTT…TC
Conditions: aptamer strand: ATP DNA aptamer (quencher-CACCTGGGGGAGTATTGCGGAGGAAGG + anchor), 100 nM annealed; ATP concentration: 500 uM
In short: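 Clusters with intensities outside 100-1000 RFU were excluded. The remaining Cy3-labelled switching-strand clusters on a modified Illumina MiSeq flow-cell had been annealed to 100 nM quencher-labelled ATP aptamer and imaged in selection buffer, then after 15 min with 500 uM ATP at 22 °C, for five cycles separated by NaOH stripping and re-annealing. The fluorescence ratio, averaged per switch-domain sequence, is each cluster's summed target-cycle Cy3 intensity over its summed buffer-cycle Cy3 intensity.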
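Note: ATP exposure 15 min at 22 °C before imaging.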

Row | Sequence | switch fluorescence ratio
1 | AAGAATGTG | 0.9474 ± 0.0022
2 | GTCGGGCGTA | 0.991 ± 0.016
3 | AAGTTGTGCG | 0.986 ± 0.029
4 | CTTGGGAGGC | 1.02 ± 0.067
5 | ACGGTAAGGA | 1.098 ± 0.0091
6 | GATTCGTCGG | 1.01 ± 0.021
7 | ATTTTTGGC | 1.03 ± 0.06
8 | TGCTGGTGCC | 1.02 ± 0.013
9 | CTCTAATGAA | 0.992 ± 0.037
10 | ATGAAGGGAG | 0.991 ± 0.061
11 | ATAAACTATA | 1.04 ± 0.06
12 | AAAAAGTGAG | 0.973 ± 0.042
13 | GAGGGTGGCC | 1.03 ± 0.031
14 | TTAGTCGGAG | 0.981 ± 0.01
15 | CAGCGTCTTT | 0.994 ± 0.012
16 | GACCGGCGGT | 0.996 ± 0.035
17 | TTGTTAGTTG | 1.01 ± 0.045
18 | TGAAAAAAAT | 1.05 ± 0.058
19 | AGGGGACTGT | 1.01 ± 0.047
20 | AAGGTCTAAC | 1.012 ± 0.0067
21 | ATAGGGAGTG | 0.996 ± 0.043
22 | GAACTAACAG | 1.03 ± 0.021
23 | TAGAGGACGA | 1.04 ± 0.063
24 | TTTGGATAAA | 1.04 ± 0.049
25 | CCTGTGAGGT | 1.01 ± 0.045

Row | Sequence | switch fluorescence ratio
26 | CGAGGGATTC | 1.12 ± 0.048
27 | ATGCAGCAT | 1.06 ± 0.036
28 | GAGCTTAGGA | 0.988 ± 0.013
29 | ACCGGGGAAT | 1.02 ± 0.027
30 | AGGGAGGCTC | 1 ± 0.057
31 | TTGATTTTGT | 1.01 ± 0.019
32 | GATCCTGGGC | 1.03 ± 0.015
33 | TGCATTTCAG | 1 ± 0.025
34 | CGCACAGCAC | 1.59 ± 0.023
35 | AGGTATCCCT | 1.01 ± 0.022
36 | TAGAAGGGAA | 1.03 ± 0.063
37 | TGTGGCACTT | 0.998 ± 0.022
38 | ATGCAGAGTA | 1.01 ± 0.018
39 | AATCCGGGGG | 0.9661 ± 0.0022
40 | GGACTGCTGG | 1.03 ± 0.033
41 | TCGCATTGAG | 1.1 ± 0.011
42 | AGAAAAACGG | 1.12 ± 0.25
43 | TTTTGCTCGG | 0.998 ± 0.025
44 | TGGGGCTACC | 1.06 ± 0.093
45 | TAAGGGGGCA | 1.01 ± 0.052
46 | CTGGGGATGG | 0.995 ± 0.02
47 | GCCGGGCGGG | 0.999 ± 0.038
48 | GGGTATGCCC | 0.9949 ± 0.0027
49 | CCGGTACGTC | 1.12 ± 0.044
50 | TGAGCTGATG | 0.986 ± 0.032

Row | Sequence | switch fluorescence ratio
51 | ACTGTAGGGC | 1.04 ± 0.04
52 | GCGCAGCTCG | 0.9814 ± 0.0084
53 | GGGAAAGGCG | 0.983 ± 0.042
54 | TTAAAGTTTG | 1.06 ± 0.063
55 | TCGAGCTGAA | 1.018 ± 0.0016
56 | GTGCTTGGGG | 0.99 ± 0.044
57 | GAGTTGCGCG | 1.01 ± 0.051
58 | TTCTCGAATT | 1.01 ± 0.039
59 | TTTTGGGACG | 0.993 ± 0.082
60 | GTGTGAAATC | 0.987 ± 0.043
61 | TTTTGGCGC | 1.002 ± 0.0012
62 | TTCGTGGAAT | 0.977 ± 0.028
63 | TCTGGTGATA | 1.01 ± 0.017
64 | CAATGATGGG | 1.0072 ± 0.00052
65 | TAAACGGGGG | 1.04 ± 0.045
66 | TGGGGATTGA | 1 ± 0.03
67 | CGAAGTGGTC | 0.995 ± 0.059
68 | TTAGTCCCGC | 1.066 ± 0.0024
69 | AAAAAGAAAT | 1.04 ± 0.021
70 | CCGCCGGGGG | 1.09 ± 0.041
71 | GAATAAAAGG | 0.973 ± 0.019
72 | GACCATGTAC | 1.48 ± 0.1
73 | TTACAAGGAT | 0.997 ± 0.012
74 | CTTCTAGCTT | 0.97 ± 0.058
75 | TGGGGCGGTG | 1.001 ± 0.0085

Row | Sequence | switch fluorescence ratio
76 | GCCGGGTCAG | 1.02 ± 0.026
77 | AATGGGTTAT | 0.992 ± 0.025
78 | CTTTGGATCA | 0.9836 ± 0.0055
79 | TTTTACAGGT | 1.01 ± 0.028
80 | TTTATAGGT | 0.9713 ± 0.0062
81 | AGGGGAAGTC | 0.953 ± 0.015
82 | TTAAAACGGA | 1.02 ± 0.036
83 | ACCGCTTCTG | 1.04 ± 0.032
84 | TTTGATTAT | 0.996 ± 0.012
85 | TTTTTGATCT | 0.998 ± 0.016
86 | TCCAAACCCC | 1.12 ± 0.046
87 | TAGAGGAAGC | 1 ± 0.011
88 | CCATTGAATG | 1.02 ± 0.015
89 | GCAGTCAAGC | 1.08 ± 0.011
90 | TTGCACGGGT | 1.01 ± 0.02
91 | AAAGCGAGTC | 1.021 ± 0.01
92 | GTGGAGTTGG | 1.31 ± 0.44
93 | TTCAGTGGGT | 0.9787 ± 0.009
94 | ACTACGATGG | 1.05 ± 0.018
95 | GAAAGGGGGT | 0.991 ± 0.027
96 | TCTCCATTGC | 1.67 ± 0.035
97 | ATTCCTGGGC | 1.03 ± 0.027
98 | GAACGGGGGA | 0.988 ± 0.035
99 | TTTAGATTTT | 0.998 ± 0.026
100 | ATGGAAAGTG | 0.9599 ± 0.0071

Reference: the supplement of paper PMC10126150
